{"source": "patent US11965039B2", "about": "“Compstatin analogues and their medical uses” (priority 2018, dated 2024)", "note": "Starred links: 1 amine or outer side, 2 acyl side, 3 side chain; linkers in the order of their positions; H or OH if unused. Positions of bridges follow the written chain, without caps; N, C: chain ends. Non-standard residues stand in square brackets, D forms with d. X1 = K(γGlu-G-γGlu-17-carboxy-heptadecanoyl), O=C(O)CCCCCCCCCCCCCCCCC(=O)N[C@@H](CCC(=O)NCC(=O)N[C@@H](CCC(=O)NCCCC[C@H](N[*:1])C(=O)[*:2])C(=O)O)C(=O)O; Trp(1-Me) = Cn1cc(C[C@H](N)C(=O)O)c2ccccc21; AEEA = NCCOCCOCC(=O)O; Sar = CNCC(=O)O", "data": [{"target": "Human C3 (Complement tech cat #A113c) (human, UniProt P01024 23-1663)", "sequence (P01024 23-1663 limits assumed)": "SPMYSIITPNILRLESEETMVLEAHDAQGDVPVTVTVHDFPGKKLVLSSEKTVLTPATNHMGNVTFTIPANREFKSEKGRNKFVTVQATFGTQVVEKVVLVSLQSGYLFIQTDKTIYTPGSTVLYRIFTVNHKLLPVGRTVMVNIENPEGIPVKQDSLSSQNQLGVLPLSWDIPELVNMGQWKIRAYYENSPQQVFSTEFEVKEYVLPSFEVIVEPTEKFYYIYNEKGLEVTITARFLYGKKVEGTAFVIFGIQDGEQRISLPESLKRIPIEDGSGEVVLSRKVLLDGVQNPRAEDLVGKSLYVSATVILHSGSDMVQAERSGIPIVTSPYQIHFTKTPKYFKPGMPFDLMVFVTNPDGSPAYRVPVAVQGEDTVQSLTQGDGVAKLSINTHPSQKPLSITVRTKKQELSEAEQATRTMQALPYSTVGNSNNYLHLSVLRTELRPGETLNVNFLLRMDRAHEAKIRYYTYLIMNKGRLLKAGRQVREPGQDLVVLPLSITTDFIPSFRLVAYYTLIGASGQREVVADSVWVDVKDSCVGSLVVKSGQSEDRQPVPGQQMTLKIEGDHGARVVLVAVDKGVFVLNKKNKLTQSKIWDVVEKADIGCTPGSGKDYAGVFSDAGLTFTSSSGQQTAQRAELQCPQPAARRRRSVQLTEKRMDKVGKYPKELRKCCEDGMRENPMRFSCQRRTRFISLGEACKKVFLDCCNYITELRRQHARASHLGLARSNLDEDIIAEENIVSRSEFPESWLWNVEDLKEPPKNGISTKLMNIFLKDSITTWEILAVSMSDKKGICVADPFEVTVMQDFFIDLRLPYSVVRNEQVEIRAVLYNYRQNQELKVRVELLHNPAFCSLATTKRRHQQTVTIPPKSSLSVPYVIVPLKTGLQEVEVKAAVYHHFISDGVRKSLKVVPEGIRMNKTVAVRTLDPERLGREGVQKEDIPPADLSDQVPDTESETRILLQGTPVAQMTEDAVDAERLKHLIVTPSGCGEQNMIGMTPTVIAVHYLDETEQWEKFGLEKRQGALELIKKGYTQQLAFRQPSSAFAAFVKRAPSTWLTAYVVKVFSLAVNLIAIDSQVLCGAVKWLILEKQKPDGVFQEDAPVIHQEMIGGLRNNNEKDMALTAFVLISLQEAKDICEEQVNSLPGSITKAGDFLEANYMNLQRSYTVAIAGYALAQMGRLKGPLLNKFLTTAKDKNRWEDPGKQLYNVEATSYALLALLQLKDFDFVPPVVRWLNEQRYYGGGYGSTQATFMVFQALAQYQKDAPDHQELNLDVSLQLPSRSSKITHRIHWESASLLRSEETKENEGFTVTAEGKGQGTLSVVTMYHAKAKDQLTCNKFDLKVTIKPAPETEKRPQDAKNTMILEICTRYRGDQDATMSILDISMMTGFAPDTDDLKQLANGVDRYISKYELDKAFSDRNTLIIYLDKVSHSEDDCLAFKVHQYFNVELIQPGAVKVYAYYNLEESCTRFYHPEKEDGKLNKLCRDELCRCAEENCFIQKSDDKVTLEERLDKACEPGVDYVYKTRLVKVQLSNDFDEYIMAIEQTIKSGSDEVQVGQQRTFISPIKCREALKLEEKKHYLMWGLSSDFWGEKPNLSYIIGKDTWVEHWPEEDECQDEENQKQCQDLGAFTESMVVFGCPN", "test": "cell-based or functional assay", "units": {"inhibition of hemolysis IC50": "nM"}, "values": [{"binder": "Ac-SEFCI[Trp(1-Me)]QDW[Sar]EHRC[Sar]E-{AEEA-AEEA-X1-NH2} (disulfide 4-14; SMILES CC[C@H](C)[C@@H]1NC(=O)[C@@H](NC(=O)[C@H](Cc2ccccc2)NC(=O)[C@H](CCC(=O)O)NC(=O)[C@H](CO)NC(C)=O)CSSC[C@@H](C(=O)N(C)CC(=O)N[C@@H](CCC(=O)O)C(=O)NCCOCCOCC(=O)NCCOCCOCC(=O)N[C@@H](CCCCNC(=O)CC[C@H](NC(=O)CNC(=O)CC[C@H](NC(=O)CCCCCCCCCCCCCCCCC(=O)O)C(=O)O)C(=O)O)C(N)=O)NC(=O)[C@H](CCCNC(=N)N)NC(=O)[C@H](Cc2c[nH]cn2)NC(=O)[C@H](CCC(=O)O)NC(=O)CN(C)C(=O)[C@H](Cc2c[nH]c3ccccc23)NC(=O)[C@H](CC(=O)O)NC(=O)[C@H](CCC(N)=O)NC(=O)[C@H](Cc2cn(C)c3ccccc23)NC1=O)", "note": "[Compound 144]", "inhibition of hemolysis IC50": "< 100"}, {"binder": "Ac-ICIWQDWGAHRCE-NH2 (disulfide 2-12; SMILES CC[C@H](C)[C@H](NC(C)=O)C(=O)N[C@H]1CSSC[C@@H](C(=O)N[C@@H](CCC(=O)O)C(N)=O)NC(=O)[C@H](CCCNC(=N)N)NC(=O)[C@H](Cc2c[nH]cn2)NC(=O)[C@H](C)NC(=O)CNC(=O)[C@H](Cc2c[nH]c3ccccc23)NC(=O)[C@H](CC(=O)O)NC(=O)[C@H](CCC(N)=O)NC(=O)[C@H](Cc2c[nH]c3ccccc23)NC(=O)[C@H]([C@@H](C)CC)NC1=O)", "note": "[Compound 12]", "inhibition of hemolysis IC50": "< 100"}, {"binder": "Ac-ESSAYCIWQDWGEHRCT-NH2 (disulfide 6-16; SMILES CC[C@H](C)[C@@H]1NC(=O)[C@@H](NC(=O)[C@H](Cc2ccc(O)cc2)NC(=O)[C@H](C)NC(=O)[C@H](CO)NC(=O)[C@H](CO)NC(=O)[C@H](CCC(=O)O)NC(C)=O)CSSC[C@@H](C(=O)N[C@H](C(N)=O)[C@@H](C)O)NC(=O)[C@H](CCCNC(=N)N)NC(=O)[C@H](Cc2c[nH]cn2)NC(=O)[C@H](CCC(=O)O)NC(=O)CNC(=O)[C@H](Cc2c[nH]c3ccccc23)NC(=O)[C@H](CC(=O)O)NC(=O)[C@H](CCC(N)=O)NC(=O)[C@H](Cc2c[nH]c3ccccc23)NC1=O)", "note": "[Compound 10]", "inhibition of hemolysis IC50": "< 100"}, {"binder": "Ac-[Sar]CIWQDWGEHRCT-NH2 (disulfide 2-12; SMILES CC[C@H](C)[C@@H]1NC(=O)[C@@H](NC(=O)CN(C)C(C)=O)CSSC[C@@H](C(=O)N[C@H](C(N)=O)[C@@H](C)O)NC(=O)[C@H](CCCNC(=N)N)NC(=O)[C@H](Cc2c[nH]cn2)NC(=O)[C@H](CCC(=O)O)NC(=O)CNC(=O)[C@H](Cc2c[nH]c3ccccc23)NC(=O)[C@H](CC(=O)O)NC(=O)[C@H](CCC(N)=O)NC(=O)[C@H](Cc2c[nH]c3ccccc23)NC1=O)", "note": "[Compound 11]", "inhibition of hemolysis IC50": "< 100"}, {"binder": "Ac-EFCI[Trp(1-Me)]QDWGEHRC[Sar]EA-{AEEA-AEEA-X1-NH2} (disulfide 3-13; SMILES CC[C@H](C)[C@@H]1NC(=O)[C@@H](NC(=O)[C@H](Cc2ccccc2)NC(=O)[C@H](CCC(=O)O)NC(C)=O)CSSC[C@@H](C(=O)N(C)CC(=O)N[C@@H](CCC(=O)O)C(=O)N[C@@H](C)C(=O)NCCOCCOCC(=O)NCCOCCOCC(=O)N[C@@H](CCCCNC(=O)CC[C@H](NC(=O)CNC(=O)CC[C@H](NC(=O)CCCCCCCCCCCCCCCCC(=O)O)C(=O)O)C(=O)O)C(N)=O)NC(=O)[C@H](CCCNC(=N)N)NC(=O)[C@H](Cc2c[nH]cn2)NC(=O)[C@H](CCC(=O)O)NC(=O)CNC(=O)[C@H](Cc2c[nH]c3ccccc23)NC(=O)[C@H](CC(=O)O)NC(=O)[C@H](CCC(N)=O)NC(=O)[C@H](Cc2cn(C)c3ccccc23)NC1=O)", "note": "[Compound 145]", "inhibition of hemolysis IC50": "< 100"}]}]}
